Experiment in all cases: native gel or EMSA
In test [1] the target is NpHV1‐GFP (Nicoletia phytophila voltage‐gated proton channel 1 with GFP) (Nicoletia phytophila).
The target in test [2] is NpHV1‐GFP with C‐terminal StrepTagII (Nicoletia phytophila).
Test [3] concerns the target NpHV1‐GFP with C‐terminal deca‐His Tag (Nicoletia phytophila).

In the case of “NpHV1‐GFP (Nicoletia phytophila voltage‐gated proton channel 1 with GFP) (natural protein)”, the stoichiometry N in test [1] stood at 2. Turning to “NpHV1‐GFP with C‐terminal StrepTagII (natural protein)”, the stoichiometry N in test [2] came out at 2. In test [3], “NpHV1‐GFP with C‐terminal deca‐His Tag (natural protein)” came in with a stoichiometry N of 2.

Values taken from article PMC7754295.
